Assay results published in the supplement of paper PMC10567573.

B1: SMTNL2 (parent)
chain: QKNFELAFTMAENLANCERLIEVE
B2: PKD2L1 (parent)
chain: SGPEAARAGGWVSGEEFYMLTRRV

Variants of: B1
Assay: protein stability index of a GFP-peptide fusion (GPS, HEK-293T) (PSI 1-6); higher = more stable
Details: c terminus: a fixed tail appended
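Also: lentivirally expressed fusions sorted by FACS into six bins by GFP to DsRed ratio, PSI derived from sequencing read proportions per bin multiplied by bin number.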

Protein stability index, by site and new letter:
L14: F 3.11, H 3.53, I 2.89, K 3.8, M 2.02, N 2.72, P 3.89, Q 3.98, R 3.92, S 3.69, T 3.79, V 3.19, W 2.26, Y 3.37
A15: C 2.46, D 3.49, E 3.11, F 1.45, G 2.67, H 2.1, I 1.87, L 1.52, M 1.92, N 2.04, P 2.93, Q 1.42, R 1.38, S 1.46, T 1.32, V 2.83, Y 1.84
N16: C 1.85, E 2.89, F 1.36, I 2.83, K 3.84, L 2.73, M 1.34, P 2.8, Q 2.33, R 1.44, V 2.61, W 3.51, Y 2.33
C17: A 2.16, D 3.98, F 2.14, G 2.98, H 3.37, I 2.14, K 3.5, M 2.83, N 4.09, P 4.29, Q 2.79, R 3.51, S 2.28, T 1.39, V 2.02, Y 2.78
E18: A 2.09, C 2.68, D 2.98, G 1.84, H 2.64, I 4.4, K 2.04, L 1.59, M 2.73, N 2.22, P 2.6, Q 1.97, R 1.85, S 2.65, T 2.18, V 1, Y 3.75
R19: A 1.84, C 1.83, E 3.33, F 2.86, G 2.92, H 1.97, I 2.57, K 1.52, L 1.55, M 2.86, N 3.03, P 3.57, Q 1.9, S 2.55, T 2.61, V 1.27, W 3.89
L20: A 2.55, C 2.1, D 4.42, E 2.92, F 2.15, G 2.97, H 2.69, I 2.31, K 2.46, M 1.35, N 4.06, P 3.58, Q 1.61, R 2.12, S 3.52, T 2.25, V 1.27, W 1.38, Y 2.08
I21: A 3.25, C 3.27, D 4.39, E 4.62, F 2.29, G 3.85, H 3.17, K 3.46, M 2.61, N 3.95, P 4.14, Q 3.72, R 2.44, S 4.54, T 4.29, V 2.96, W 3.67, Y 2.99
E22: A 3.4, C 2.79, D 1.72, G 1.55, H 1.88, I 2.9, K 2.71, M 2.94, N 1.68, P 2.82, T 3.65
V23: A 2.18, C 2.21, D 1.77, E 2.93, F 2.36, G 2.04, H 2.73, I 1.78, K 1.66, L 2.34, M 4.25, N 1.69, P 2.98, Q 1.3, R 2.21, S 2.25, T 3.11, W 1.63, Y 3.99
E24: A 2.84, C 1.42, D 1.62, F 3.44, G 2.13, H 1.6, I 1.03, K 2.22, L 1.56, M 1.89, N 2.11, P 2.15, Q 1.33, R 2.4, S 1.36, T 1.95, V 1.45, Y 2.13

Variants of: B2
Assay: as above
Details: c terminus: a fixed tail appended

Protein stability index: each site, then its substitutions
S1: A 2.81, D 2.35, E 2.68, F 1.12, H 2.53, I 2.64, K 2.75, L 1.5, M 2.04, N 2.65, P 2.35, Q 3.02, T 2.68, V 2.67, W 2.85, Y 1.46
G2: A 2, C 1.67, D 2.24, E 3.1, F 1.83, H 2.17, K 1.8, M 3.57, N 2.93, P 2.08, Q 2.64, R 2.24, S 2.19, T 2.94, V 2.27, W 2.91, Y 1.72
P3: A 2.38, C 2.11, D 2.04, E 2.43, F 1.83, G 2.63, H 2.32, I 2.16, K 2.37, L 1.91, M 2.2, N 2.59, Q 2.44, R 1.78, S 2.02, T 2.4, V 2.14, W 1.74, Y 1.49
E4: C 1.81, D 2.59, F 1.71, G 2.42, H 2.28, I 2.02, K 1.94, L 1.6, M 2.35, N 2.64, P 2.08, Q 1.57, R 2.44, S 3.46, T 1.78, V 1.56, W 1.3, Y 1.92
A5: C 1.98, D 2.71, E 2.32, F 2.24, G 3.07, H 2.03, I 2.33, K 1.96, L 2.19, M 2.58, N 2.18, P 2.2, Q 2.45, R 2.4, S 1.96, T 1.82, V 3.28, W 2.06, Y 2.18
A6: C 2.31, D 2.35, E 2.65, F 1.68, G 3.16, H 2.24, I 2.02, K 2.12, L 3.07, M 1.7, N 2.85, P 2.21, Q 2.13, R 2.43, S 3.01, T 2.86, V 3.13, W 1.06, Y 2.4
R7: E 2.75, F 2.9, G 2.24, I 2.11, K 2.72, L 2.58, M 2.64, N 2.44, P 2.68, Q 3.04, S 2.42, T 2.44, V 2.56, W 2.6, Y 2.31
A8: C 1.97, D 2.43, E 3.22, F 1.7, G 2.15, H 1.81, I 1.76, K 2.13, L 2.02, M 1.8, N 2.18, P 2.05, Q 2.65, R 2.03, S 2.31, T 2.24, V 2.25, W 2.71, Y 1.76
G9: A 1.92, C 1.59, D 2.5, E 2.5, F 2.06, H 2.03, I 2.25, K 1.97, L 2.95, M 1.97, N 2.13, P 2.39, Q 2.51
